Measurements as given in patent publication US10456446B2, “Use of human small leucine zipper protein in osteogenesis procedure” (Korea University Research and Business Foundation, priority 2013, dated 2019).

Tests used:
PPARγ2 = target: T1, PPARγ2 (Mus musculus, UniProt P37238); assay: PPARγ2 transcriptional activity in FABP4-Luc stable C3H10T1/2 cells differentiated into adipocytes; assay type: cell-based; conditions: sLZIP-expressing adenovirus, differentiated into adipocytes for 4 days
T1 construct: endogenous in cells
T1 sequence (P37238 1-505): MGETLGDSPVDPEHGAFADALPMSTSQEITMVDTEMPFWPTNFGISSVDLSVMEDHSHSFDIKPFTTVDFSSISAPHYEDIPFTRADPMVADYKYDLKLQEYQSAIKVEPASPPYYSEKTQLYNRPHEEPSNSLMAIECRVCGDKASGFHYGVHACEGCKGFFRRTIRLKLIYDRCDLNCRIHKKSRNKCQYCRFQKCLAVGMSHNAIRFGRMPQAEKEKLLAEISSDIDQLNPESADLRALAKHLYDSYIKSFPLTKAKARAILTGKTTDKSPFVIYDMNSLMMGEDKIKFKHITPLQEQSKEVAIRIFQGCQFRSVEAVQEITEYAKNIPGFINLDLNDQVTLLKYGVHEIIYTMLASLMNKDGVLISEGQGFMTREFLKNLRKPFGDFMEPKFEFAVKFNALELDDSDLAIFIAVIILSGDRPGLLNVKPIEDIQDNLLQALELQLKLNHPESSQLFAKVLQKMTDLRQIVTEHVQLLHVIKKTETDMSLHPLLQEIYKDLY

[1] = test system: primary MSCs and C3H10T1/2 cells; assay: Osteoblast differentiation in primary MSCs and C3H10T1/2 cells; assay type: cell-based; conditions: differentiation medium for 8 days
Experimental: Primary human mesenchymal stem cells (MSCs), C3H10T1/2, 293T and MEF cells were cultured in a DMEM to which thermally inactivated 10% FBS and penicillin (100 U/mL)/streptomycin (100 μg/mL) were added. All cell types were cultured in a humidified incubator containing CO2 5% under a temperature condition of 37° C. In order to induce osteoblast differentiation, the medium was exchanged with a DMEM in which 50 μg/mL of ascorbic acid, 10 mM of β-glycerophosphate and 10% FBS were contained for 8 days. The differentiation medium was changed once every two days.
C3H10T1/2 and 293T cells were plated in a 12-well culture dish at a density of 2×10^5 cells/well and incubated for 24 hours. Then, according to instructions of the manufacturer, the cells were transfected with a 0.2 μg of reporter genes and 0.1 to 0.5 μg of a laboratory plasmid using Lipofectamine 2000 or Genefectine. After 24 hours, the cells were cultured in a serum-free DMEM with or without 10 nM of rosiglitazone. siRNAs were prepared using sLZIP and HDAC target sequences (Table 1). […]
Therefore, in order to characterize a potential role of sLZIP in the transcriptional activity of Runx2 by inhibiting the transcriptional activity of PPARγ2, the transcriptional activity of Runx2 was examined. […] A promoter activity was measured by luciferase analysis. […]

[2] = test system: BMMs (bone marrow macrophages)-derived mature osteoclasts; assay: Osteoclast marker mRNA in osteoclasts derived from bone marrow macrophages of sLZIP TG mice, real-time PCR; assay type: cell-based, mouse; conditions: RANKL 100 ng/mL and M-CSF 30 ng/mL, wild type versus sLZIP TG mice
Experimental: Real-time PCR was performed in LightCycler 480 using a SYBR Green Master Mix (Roche, Mannheim, Germany). β-actin was used as an internal control group. A target gene expression level rate with respect to β-actin was calculated using CT method. A Ct value is defined as a PCR cycle number at which a fluorescence signal reaches a fixed target threshold. Experiments were technically repeated three times for each experiment.
When a bone is initially developed during an embryo, cartilage is formed and hardened to a bone according to a so-called ossification (or osteogenesis) process. In order to examine whether sLZIP-mediated osteogenesis is associated with cartilage development, an effect of sLZIP in chondrocyte differentiation was examined. For this purpose, ATDC5 cells were temporarily transfected with sLZIP at different contents (0.1 μg to 0.5 μg). Total RNA was extracted from the cells, and an mRNA expression level of a chondrocyte marker was measured using RT-PCR analysis (FIG. 8A) and real-time PCR (FIG. 8B). GAPDH was used as an internal control group. An experiment was repeated three times. […] Total RNA was extracted from the mature osteoclasts, and an mRNA expression level of an osteoclast marker was measured using real-time PCR (FIG. 8D). […]

B1: sLZIP: human small leucine-zipper protein, isoform of LZIP, 354 amino acids, no transmembrane domain, GenBank FJ263669, SEQ ID NO: 1 (protein, listed as Homo sapiens)
chain: MELELDAGDQDLLAFLLEESGDLGTAPDEAVRAPLDWALPLSEVPSDWEVDDLLCSLLSPPASLNILSSSNPCLVHHDHTYSLPRETVSMDLESESCRKEGTQMTPQHMEELAEQEIARLVLTDEEKSLLEKEGLILPETLPLTKTEEQILKRVRRKIRNKRSAQESRRKKKVYVGGLESRVLKYTAQNMELQNKVQLLEEQNLSLLDQLRKLQAMVIEISNKTSSSSMYSSDTRGSLPAEHGVLSRQLRALPSEDPYQLELPALQSEVPKDSTHQWLDGSDCVLQAPGNTSCLLHYMPQAPSAEPPLEWPFPDLFSEPLCRGPILPLQANLTRKGGWLPTGSPSVILQDRYSG
- transcriptional activity of PPARγ2 (relative luciferase activity) (PPARγ2): decreased
- osteoblast differentiation [1]: increased osteoblast differentiation
- osteoclast markers (Oscar, Ctsk, TARP) [2]: no difference
